The text below walks through data of patent US20210032351A1 (XDCEXPLORER SHANGHAI, published 2021).

The target of assay [1] is T1, human EGFRvIII-hFc protein (human, UniProt P00533 25-645).
T1 construct: extracellular domain; made in HEK293 cells, purified on protein A; also called immunogen A; hFc-tagged EGFRvIII protein; not shown: human IgG Fc fragment (hFc) of the pCpC vector
Briefly: ELISA, coated EGFRvIII-hFc, antibody 1 nM. In a few lines:
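EGFRvIII-hFc coated at 1.0 μg/mL in PBS overnight at 4° C, blocked with PBS/0.01% Tween20/1% BSA for 2 h at room temperature. Purified anti-EGFRvIII antibody bound 2 h at 37° C, then HRP-labeled secondary 2 h at 37° C. TMB developed 30 min, stopped with 1.0N HCl, A450 nm read.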
(In general: An ELISA detects its analyte on a solid surface through an enzyme-linked reagent.)

Assay [2] addresses T2, human EGFR protein (wild-type), on cells (human, UniProt P00533 25-1210).
T2 construct: whole, on cells; transfected on CHO-K1 cells; endogenous on the human cell lines; the cell is named under assay; also called wild-type EGFR; hEGFR
The experiment in a line: FACS on A431 cells (wild-type EGFR), Alexa 488 secondary antibody, mean fluorescence intensity. On the procedure: (§1) The cells are washed twice with the HBSS buffer and are counted, and then the cells are diluted with the HBSS buffer to 2×10⁶ cells/ml, added with 1% goat serum blocking solution, with the percentage being the mass percentage, and incubated on ice for 30 minutes, and then centrifugally washed twice with the HBSS buffer. The collected cells are suspended to 2×10⁶ cells/mL with an FACS buffer (HBSS+1% BSA, with the percentage being the mass percentage), added to a 96-well FACS reaction plate at 100 μL/well, then added with 100 μL/well of the purified EGFRvIII antibody (samples to be tested) obtained in example 2, and incubated on ice for 2 hours. The plate is centrifugally washed twice with the FACS buffer, added with 100 μL/well of a fluorescence (Alexa 488) labeled secondary antibody (purchased from Invitrogen), and then incubated on ice for 1 hour. […] The cells are suspended in 100 μL of the FACS buffer, and the results are detected and analyzed by FACS (FACS Calibur, purchased from BD). Data analysis is performed by using the software (CellQuest) to obtain the mean fluorescence intensity (MFI) of the cells. Data is further analyzed by using the software (GraphPad Prism5) to perform data fitting and calculate EC50. […]

The target in assay [3] is T3, human EGFRvIII-hFc protein (human, UniProt P00533 25-645).
T3 construct: extracellular domain; also called immunogen A; hFc-tagged EGFRvIII protein; not shown: human IgG Fc fragment (hFc) of the pCpC vector
Briefly: ELISA, EGFRvIII-hFc coated.

Assay [4] has as its target T4, human wild-type EGFR protein on the cell surface (human, UniProt P00533 25-1210).
T4 construct: whole, on cells; Endogenous on A431, HEB, U87MG cells and normal human primary hepatocytes; transfected on CHOk1-EGFR cells; The cell is named under assay; also called A431; HEB
The experiment in a line: FACS on CHOk1-EGFR cells; CHOk1-EGFR cells (recombinant EGFR expression). The method, then:
as §1

Assay [5] has as its target T4, human wild-type EGFR protein on the …. The experiment in a line: FACS on A431 cells; A431 cells (large amount of wild-type EGFR on the surface). On the procedure:
The cells are washed twice with the HBSS buffer and are counted, and then the cells are diluted with the HBSS buffer to 2×10⁶ cells/ml, added with 1% goat serum blocking solution, with the percentage being the mass percentage, and incubated on ice for 30 minutes, and then centrifugally washed twice with the HBSS buffer. The collected cells are suspended to 2×10⁶ cells/mL with an FACS buffer (HBSS+1% BSA, with the percentage being the mass percentage), added to a 96-well FACS reaction plate at 100 μL/well, then added with 100 μL/well of the purified EGFRvIII antibody (samples to be tested) obtained in example 2, and incubated on ice for 2 hours. The plate is centrifugally washed twice with the FACS buffer, added with 100 μL/well of a fluorescence (Alexa 488) labeled secondary antibody (purchased from Invitrogen), and then incubated on ice for 1 hour. The plate is centrifugally washed 3 times with the FACS buffer, added with 100 μL/well of a fixing solution [4% (v/v) paraformaldehyde] for suspending the cells, and centrifugally washed twice with the FACS buffer after 10 minutes. The cells are suspended in 100 μL of the FACS buffer, and the results are detected and analyzed by FACS (FACS Calibur, purchased from BD). Data analysis is performed by using the software (CellQuest) to obtain the mean fluorescence intensity (MFI) of the cells. Data is further analyzed by using the software (GraphPad Prism5) to perform data fitting and calculate EC50. […] A431 cells (human epidermal cell cancer cell lines) have a large amount of wild-type EGFR protein expressed on the surface thereof. […] U87MG cells (human glioma cell lines) have a small amount of wild-type EGFR protein expressed on the surface thereof, while HEB cells (human glioma cell lines) have a high level of wild-type EGFR protein expression on the surface thereof.

Assay [6] has the same target. The experiment in a line: FACS, MFI on A431 cells over MFI on normal primary hepatocytes; ratio of MFI on A431 to MFI on hepatocytes. For orientation: In flow cytometry, cells or beads pass a laser one at a time.

B1: Murine anti-75G7 (antibody, V domains shown)
VH: EVQLQQSGPELVKPGASVKIPCKASGYTFTDYNMDWVKQSHGKSLEWIGDINPNNGDTIYNQKFKGKATLTVDKSSSTAYMELRSLTSEDTAVYYCARGDYDGYYPVYYAMDYWGQGTSVTVSS
VL: ENVLTQSPAIMSASPGEKVTMTCRASSSVSSSYLHWYQQKSGASPKLWIFSTSNLAAGVPARFSGSGSGTSYSLTVSSVEAEDAATYYCQQYSGYPLTFGAGTKLELK
notes: murine hybridoma antibody; also called 75G7C6
Take B1: the OD450 nm in assay [1] is 0.09. Moreover, the EC50 (read off the curve) (as a rule, the concentration giving half of the maximal effect) in assay [2] was roughly 10 nM.

B2: Chimeric antibody 75G7 (antibody, human IgG1, V domains shown)
VH: EVQLQQSGPELVKPGASVKIPCKASGYTFTDYNMDWVKQSHGKSLEWIGDINPNNGDTIYNQKFKGKATLTVDKSSSTAYMELRSLTSEDTAVYYCARGDYDGYYPVYYAMDYWGQGTSVTVSS
VL: ENVLTQSPAIMSASPGEKVTMTCRASSSVSSSYLHWYQQKSGASPKLWIFSTSNLAAGVPARFSGSGSGTSYSLTVSSVEAEDAATYYCQQYSGYPLTFGAGTKLELK
notes: also called c75G7C6; chimeric antibody c75G7C6
For the molecule B2, in assay [3], the EC50 – broadly, the midpoint of the concentration-response curve – was 0.02 nM; the “Maximum OD450 value” is 3.03 OD450; the “OD450 nm at 0.0001 nM antibody” value is 0.07 OD450; the “OD450 nm at 0.001 nM antibody” value was 0.08 OD450. For the same molecule, in assay [3], the “OD450 nm at 0.01 nM antibody” value is 0.15 OD450, the “OD450 nm at 0.1 nM antibody” value turned out to be 0.65 OD450, the “OD450 nm at 1 nM antibody” value was 2.69 OD450 and the “OD450 nm at 10 nM antibody” value was 3.41 OD450. For the same molecule, in assay [3], the “OD450 nm at 100 nM antibody” value came out at 3.44 OD450. Also, in assay [4], the EC50 was determined as 14.2 nM. In assay [5], this molecule returned a concentration for a half-maximal effect (EC50) of 13.4 nM. In addition, the “Selective window (MFI A431/Hepatocytes)” value in assay [6] was 26.5 fold.
